Laboratory results published in patent US20250304664A1 (VIB VZW, published 2025).
Numbering of substitutions follows the chain as printed. Numbers in names are those of the source.

B1: NbNTCP_87 (VHH)
VHH: QVQLVESGGGLVQAGGSLRLSCAVSGRTTANYNMGWFRQAPGKEREFVAGIKWSSGSTYVADSAKGRFTISRDNAKNSVYLQMDSLKPEDTALYYCAANYYGVSWFLISPSSYDYWGQGTQVTVSS
notes: Family 21; expressed in E. coli periplasm; also called Nb87
B2: NbNTCP_87 - S55Q variant (VHH)
VHH: B1 VHH with S55Q
notes: Single mutant of Nb87; also called Nb87 S55Q
B3: NbNTCP_87 -A30Q variant (VHH)
VHH: B1 VHH with A30Q
notes: Single mutant of Nb87; also called Nb87 A30Q
B4: NbNTCP_87 - S55E variant (VHH)
VHH: B1 VHH with S55E
notes: Single mutant of Nb87; also called Nb87 S55E
B5: NbNTCP_87 - S111R variant (VHH)
VHH: B1 VHH with S111R
notes: Single mutant of Nb87; also called Nb87 S111R
B6: NbNTCP_91- N27D variant (VHH)
VHH: QVQLVESGGGLVEAGGSLRLSCAASTDLRSYAMAWFRQAPGKEREFVSFINWNYGNTRYADSVKGRFTISRDNAKITVYLQMNSLKPEDTAVYYCAAATIGRLAGIDSTTLYDYWGQGTQVTVSS
notes: Single mutant of Nb91; also called Nb91 N27D
B7: NbNTCP_91- N27E variant (VHH)
VHH: B6 VHH with D27E
notes: Single mutant of Nb91; also called Nb91 N27E
B8: NbNTCP_91-N53D variant (VHH)
VHH: B6 VHH with D27N, N53D
notes: Single mutant of Nb91; also called Nb91 N53D
B9: NbNTCP_91- N27Q variant (VHH)
VHH: B6 VHH with D27Q
notes: Single mutant of Nb91; also called Nb91 N27Q
B10: NbNTCP_91- L103N variant (VHH)
VHH: B6 VHH with D27N, L103N
notes: Single mutant of Nb91; also called Nb91 L103N
B11: NbNTCP_91- R29N variant (VHH)
VHH: B6 VHH with D27N, R29N
notes: Single mutant of Nb91; also called Nb91 R29N
B12: NbNTCP_91- R29S variant (VHH)
VHH: B6 VHH with D27N, R29S
notes: Single mutant of Nb91; also called Nb91 R29S
B13: NbNTCP_91- R29G variant (VHH)
VHH: B6 VHH with D27N, R29G
notes: Single mutant of Nb91; also called Nb91 R29G; NbNTOP_91- R29G variant

Molecular target: T1, NTCP consensus-mutant construct used for cryo-electron microscopy structure determination (NTCPEM) (human (consensus design), UniProt Q14973 2-328)
T1 chain: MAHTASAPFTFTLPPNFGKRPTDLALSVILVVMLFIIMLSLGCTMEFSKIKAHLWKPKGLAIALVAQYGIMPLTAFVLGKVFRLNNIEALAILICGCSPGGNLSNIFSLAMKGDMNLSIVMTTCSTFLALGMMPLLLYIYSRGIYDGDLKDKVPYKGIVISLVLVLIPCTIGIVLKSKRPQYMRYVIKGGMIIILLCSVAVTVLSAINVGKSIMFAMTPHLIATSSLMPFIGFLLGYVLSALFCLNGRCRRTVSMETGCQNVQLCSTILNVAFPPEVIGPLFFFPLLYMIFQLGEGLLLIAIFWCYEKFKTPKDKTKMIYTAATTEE
Assay: cell-based or functional assay

Row | Binder | half-maximal inhibitory concentrations (IC50) of Na+-induced fluorescent-substrate uptake by cells expressing NTCPEM [nM]
1 | B1 | ~180

Molecular target: T2, N-glycosylation knocked-out NTCP (NTCPWT_KOG) (human, UniProt Q14973 1-349)
T2 chain: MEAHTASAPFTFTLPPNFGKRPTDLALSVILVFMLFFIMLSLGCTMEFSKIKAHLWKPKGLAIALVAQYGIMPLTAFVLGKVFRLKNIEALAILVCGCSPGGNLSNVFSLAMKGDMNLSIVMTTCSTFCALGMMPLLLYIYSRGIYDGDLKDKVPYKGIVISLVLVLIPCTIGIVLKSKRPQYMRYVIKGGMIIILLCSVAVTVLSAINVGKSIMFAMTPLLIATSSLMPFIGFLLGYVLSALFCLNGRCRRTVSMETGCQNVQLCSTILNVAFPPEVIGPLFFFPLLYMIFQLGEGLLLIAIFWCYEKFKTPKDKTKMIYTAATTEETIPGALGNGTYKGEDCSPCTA
Assay: competition with Nb87, substrate uptake read-out in HEK293 cells expressing NTCPWT-KOG, Nbs at 2 µM

Row | Binder | binding result
2 | B2 | binds
3 | B3 | binds
4 | B4 | binds
5 | B5 | binds

The binders below were run against T3, human wild type Sodium taurocholate co-transporting polypeptide (NTCPWT) (human, UniProt Q14973 1-349) (assay: cell surface labelling, 20 µM Nb87 and 10 µM (AntiC)2-mCherryXL, fluorescence microscopy).
T3 construct: Transiently expressed in HEK293 cells; also called SLC10A1; human wildtype NTCP
T3 sequence: T2 chain with T5N, T11N
Procedure: (§1) Adherent HEK293T cells were seeded at 0.3×10⁶/mL using 500 μl per well in a 24-well plate and incubated for 2 days. 5 μg of cDNA coding for NTCP, or control neurotransmitter (EAAT1) was transfected as follows: (1) 5 μg DNA was mixed with 50 μl Opti-MEM and incubated for 5 min; (2)² μl lipofeactamine was mixed with 50 μl of Opti-MEM and incubated for 5 min: (3) DNA and lipofectamine solutions were mixed in 1:1 ratio and incubated for 20 min. 100 μl of the mixture was added to each well. After incubation for 6-8 h the medium was changed to DMEM medium, and incubated for 2 days post transfection. […] Excess of primary unlabeled Nb was removed and 10 μM of the secondary labelled Nb ((AntiC)2-mCherryXL) was added following a 1 h incubation. Cells were washed once with fresh medium prior to detection of fluorescence on an inverted microscope.

Row | Binder | binding result
6 | B1 | binds

Molecular target: T2, N-glycosylation knocked-out NTCP …
Assay: competition with Nb91, substrate uptake read-out in HEK293 cells expressing NTCPWT-KOG, Nbs at 10 µM

Row | Binder | binding result
7 | B6 | binds
8 | B7 | binds
9 | B8 | binds
10 | B9 | binds
11 | B10 | binds
12 | B11 | binds
13 | B12 | binds
14 | B13 | binds

The binders below were run against T4, excitatory amino acid transporter, EAAT1 (UniProt P43003 1-542, limits assumed) (assay: cell surface labelling of transfected HEK293T cells, Nb87 as primary Nb and (AntiC)2-mCherryXL as secondary Nb, fluorescence microscopy).
T4 construct: whole, on cells; Negative control expressed on HEK293T cells; also called unrelated neurotransmitter transporter
T4 sequence (P43003 whole entry): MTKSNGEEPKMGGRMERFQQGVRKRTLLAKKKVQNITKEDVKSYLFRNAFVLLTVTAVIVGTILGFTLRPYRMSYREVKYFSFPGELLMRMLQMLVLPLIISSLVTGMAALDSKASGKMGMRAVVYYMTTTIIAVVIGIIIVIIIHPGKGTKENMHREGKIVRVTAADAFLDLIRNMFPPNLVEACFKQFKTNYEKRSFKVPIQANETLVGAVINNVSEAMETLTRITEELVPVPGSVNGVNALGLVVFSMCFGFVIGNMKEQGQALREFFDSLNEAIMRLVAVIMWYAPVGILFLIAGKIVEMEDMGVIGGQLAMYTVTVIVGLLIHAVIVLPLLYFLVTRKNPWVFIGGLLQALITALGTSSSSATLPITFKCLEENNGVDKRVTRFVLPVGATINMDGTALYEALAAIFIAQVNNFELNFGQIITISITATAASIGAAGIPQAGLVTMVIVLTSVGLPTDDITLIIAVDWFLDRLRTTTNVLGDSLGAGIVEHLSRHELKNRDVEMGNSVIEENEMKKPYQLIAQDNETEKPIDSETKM
Procedure: as §1

Row | Binder | binding result
15 | B1 | no binding (tested: 20 µM Nb87)
